The target in assay [1] is T1, ALKTG (human ALK amino acids 648-985) (human, UniProt Q9UM73 648-985, N-linked glycans; EndoH-trimmed for crystals and SEC-MALLS).
T1 construct: Fc-His6 tag removed by caspase 3; also called ALK TG supradomain
The assay can be described thus: ITC. The protocol: (§1) Experiments were performed using a MicroCal PEAQ-ITC instrument at 310K. Proteins used in ITC experiments were expressed in HEK293S cells grown in suspension. As a final purification step all proteins were buffer exchanged to the same HBS buffer via size-exclusion chromatography. Titrations were preceded by an initial injection of 0.5 μL. The injection spacing was optimized per experiment to allow for the signal to get back to a stable baseline. Throughout the titration the sample was stirred at a speed of 750 r.p.m. Data were analyzed using the PEAQ-ITC analysis software (version 1.1.0.1262, Malvern) and fit using a “one set of sites” model.
For orientation: Isothermal titration calorimetry measures the heat released or taken up as one component is titrated into another.

Assay [2] addresses T2, ALKTG-EGFL (human ALK amino acids 648-1025) (human, UniProt Q9UM73 648-1025, N-linked glycans; EndoH-trimmed (deglycosylated) for crystals and SEC-MALLS).
T2 construct: The C-terminal Fc-His6 tag was removed by caspase 3; also called ALK (in BLI, SEC-MALLS and ITC)
The assay can be described thus: ITC, 310 K, one-site model. As to the method: (§2) FIG. 5A and FIG. 5B Isothermal titration calorimetry thermograms for the titration of ALK_TG-EGFL (10 μM) with ALKAL2 (100 μM) (FIG. 5A) and titration of ALKAL1 (25 μM) with ALK_TG-EGFL (210 μM) (FIG. 5B). […] The right panel represents the binding isotherm obtained from the integration of the raw data and fitted to a one-site model. Standard deviations were calculated based on 3 measurements.
as §1

In assay [3] the target is T3, LTKTG-EGFL (human LTK amino acids 63-420) (human, UniProt P29376 63-420).
T3 construct: Fc-His6 tag removed by caspase 3; also called LTK (in BLI, SEC-MALLS and ITC)
T3 sequence: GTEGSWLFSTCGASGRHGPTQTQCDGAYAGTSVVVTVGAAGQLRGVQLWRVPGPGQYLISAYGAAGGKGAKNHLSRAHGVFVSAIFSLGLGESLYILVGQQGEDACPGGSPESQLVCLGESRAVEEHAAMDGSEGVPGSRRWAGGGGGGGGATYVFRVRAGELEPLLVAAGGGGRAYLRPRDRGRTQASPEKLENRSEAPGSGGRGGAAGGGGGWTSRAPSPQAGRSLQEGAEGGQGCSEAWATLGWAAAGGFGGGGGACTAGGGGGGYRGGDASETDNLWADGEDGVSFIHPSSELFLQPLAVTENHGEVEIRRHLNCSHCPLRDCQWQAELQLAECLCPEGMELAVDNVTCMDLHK
The assay can be described thus: ITC, 310 K, one-site model, 2:1 stoichiometry. As to the method:
(§3) The right panel represents the binding isotherm obtained from the integration of the raw data and fitted to a one-site model. Standard deviations were calculated based on 3 measurements.
as §1

Assay [4] addresses T4, ALKFL (full-length human ALK ectodomain, amino acids 19-1025) (human, UniProt Q9UM73 19-1025).
T4 construct: Fc-His6 tag removed by caspase 3; also called full-length ALK ectodomain
The assay can be described thus: ITC at 310 K, ALKFL (8 µM) titrated with ALKAL2 (82 µM), one-site model.

For assay [5], the target named is T1, ALKTG (human ALK amino acids 648-985). In words: ITC at 310 K, ALKAL2 (33 µM) titrated with ALKTG (330 µM), one-site model. As to the method:
FIG. 5D, Titration of ALKAL2 (33 μM) with ALKTG (330 μM) Standard deviations were calculated based on 3 measurements.
as §1

Assay [6] deals with T5, LTKTG (human LTK amino acids 63-379) (human, UniProt P29376 63-379).
T5 construct: also called LTK TG supradomain
T5 sequence: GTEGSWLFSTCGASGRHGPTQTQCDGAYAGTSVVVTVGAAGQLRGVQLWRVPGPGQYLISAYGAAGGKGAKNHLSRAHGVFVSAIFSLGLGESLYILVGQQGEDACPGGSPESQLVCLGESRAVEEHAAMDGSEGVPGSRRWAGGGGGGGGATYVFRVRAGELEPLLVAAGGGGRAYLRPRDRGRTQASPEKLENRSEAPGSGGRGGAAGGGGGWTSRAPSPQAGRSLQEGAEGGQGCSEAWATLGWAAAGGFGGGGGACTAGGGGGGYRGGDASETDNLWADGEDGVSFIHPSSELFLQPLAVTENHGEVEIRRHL
In words: ITC at 310 K, LTKTG (10 µM) titrated with ALKAL2 (100 µM), one-site model. The protocol: FIG. 12G, ITC experiments for the titration of LTKTG (10 μM) with ALKAL2 (100 μM) Standard deviations were calculated based on 2 measurements.
as §1

Assay [7] addresses T2, ALKTG-EGFL (human ALK amino acids …). In words: ITC at 310 K, ALKTG-EGFL (10 µM) titrated with ALKAL2 (100 µM), one-site model. As to the method:
as §2, §1

The target of assay [8] is T3, LTKTG-EGFL (human LTK amino acids …). In words: ITC at 310 K, LTKTG-EGFL (12 µM) titrated with ALKAL2 (56 µM), one-site model. The protocol: as §3, §1
For assay [9], the target named is T2, ALKTG-EGFL (human ALK amino acids …). In words: BLI, biotinylated ALKAL2 on streptavidin biosensors, ALKTG-EGFL in solution 800 nM to 12.5 nM, 1:1 model. From the text: (§4) FIGS. 10A and 10B Representative response curves as measure by biolayer-interferometry (BLI) for the interaction of WT ALKAL1 and ALKAL1 mutants (containing charge-reversal mutations of residues involved in site 1) (FIG. 10A) and WT ALKAL2 and ALKAL2 mutants (FIG. 10B) with ALK_TG-EGFL and LTK_TG-EGFL. For WT ALKALs LTK curves were fitted with a 2:1 binding model (red) while for ALK a 1:1 model was used. Start and end concentrations of the 3-fold dilution series used for the WT measurements is shown as an inset while for all mutants a […] dilution series from 6.4 μM-400 nM was used.
(§5) All measurements of binding kinetics and dissociation constants were performed using an Octet Red 96 (Forté Bio) in assay buffer (20 mM HEPES pH 7.4, 150 mM NaCl, 0.02% (w/v) BSA, 0.002% (v/v) Tween 20) at 298K. ALKALs were immobilized to a level of 0.5 nm on streptavidin-coated biosensors (Forté Bio). To verify that no a specific binding was present during the assay, non-functionalized biosensors were used as a control by measuring in parallel all ligand concentrations as well as running buffer. For all mutants a two-fold dilution series from 6.4 μM-400 nM was employed. Data analysis was performed using the Data Analysis software 9.0.0.14 (Forté Bio) and binding curves were exported to Prism8 (Graphpad Software) for plotting of curves.

The target in assay [10] is T3, LTKTG-EGFL (human LTK amino acids …). In words: BLI, biotinylated ALKAL2 on streptavidin biosensors, LTKTG-EGFL in solution 300 nM to 11 nM, 2:1 binding model, component 1.
Excerpt: as §4, §5
A general note: In BLI a coated tip is dipped into the sample, and binding shifts an interference pattern.

Assay [11] has the same target. In words: BLI, biotinylated ALKAL2 on streptavidin biosensors, LTKTG-EGFL in solution 300 nM to 11 nM, 2:1 binding model, component 2.
Excerpt: as §4, §5

Assay [12] addresses T1, ALKTG (human ALK amino acids 648-985). In words: ITC at 310 K, ALKAL1 (33 µM) titrated with ALKTG (330 µM), one-site model. The protocol: FIG. 5E, Titration of ALKAL1 (33 μM) with ALKTG (330 μM) Standard deviations were calculated based on 3 measurements.
as §1

The target in assay [13] is T5, LTKTG (human LTK amino acids 63-379). The assay can be described thus: ITC at 310 K, LTKTG (10 µM) titrated with ALKAL1 (70 µM), one-site model. As to the method:
FIG. 12F, ITC experiments for the titration of LTKTG (10 μM) with ALKAL1 (70 μM) Standard deviations were calculated based on 2 measurements.
as §1

Assay [14] has as its target T3, LTKTG-EGFL (human LTK amino acids …). In words: ITC at 310 K, LTKTG-EGFL (5 µM) titrated with ALKAL1 (56 µM), one-site model. The protocol:
as §3, §1

Assay [15] has as its target T2, ALKTG-EGFL (human ALK amino acids …). The assay can be described thus: ITC at 310 K, ALKAL1 (25 µM) titrated with ALKTG-EGFL (210 µM), one-site model. As to the method: as §2, §1
Assay [16] has the same target. The assay can be described thus: BLI, biotinylated ALKAL1 on streptavidin biosensors, ALKTG-EGFL in solution 6 µM to 400 nM, 1:1 model.
Excerpt: as §4, §5

In assay [17] the target is T3, LTKTG-EGFL (human LTK amino acids …). In words: BLI, biotinylated ALKAL1 on streptavidin biosensors, LTKTG-EGFL in solution 300 nM to 11 nM, 2:1 binding model, component 1.
Excerpt: as §4, §5

For assay [18] the target is unchanged. In words: BLI, biotinylated ALKAL1 on streptavidin biosensors, LTKTG-EGFL in solution 300 nM to 11 nM, 2:1 binding model, component 2.
Excerpt: as §4, §5

Assay [19] shares this target. The assay can be described thus: BLI, biotinylated ALKAL1 R102E on streptavidin biosensors, LTKTG-EGFL in solution, dilution series 6.4 µM-400 nM.
Excerpt: as §4, §5

Here are results for three molecules from patent publication US20250027060A1 (VIB VZW, published 2025).

T2 sequence (Q9UM73 648-1025): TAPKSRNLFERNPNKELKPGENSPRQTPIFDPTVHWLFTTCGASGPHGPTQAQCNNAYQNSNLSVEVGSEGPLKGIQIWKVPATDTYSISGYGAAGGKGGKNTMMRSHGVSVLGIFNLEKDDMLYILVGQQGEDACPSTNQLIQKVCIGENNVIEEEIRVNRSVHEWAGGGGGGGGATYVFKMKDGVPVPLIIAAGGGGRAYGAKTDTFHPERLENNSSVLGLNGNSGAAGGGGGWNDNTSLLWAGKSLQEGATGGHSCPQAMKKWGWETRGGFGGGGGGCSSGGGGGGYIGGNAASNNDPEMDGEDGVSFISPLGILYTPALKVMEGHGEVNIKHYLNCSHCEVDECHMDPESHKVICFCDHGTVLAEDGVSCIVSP
T4 sequence (Q9UM73 19-1025): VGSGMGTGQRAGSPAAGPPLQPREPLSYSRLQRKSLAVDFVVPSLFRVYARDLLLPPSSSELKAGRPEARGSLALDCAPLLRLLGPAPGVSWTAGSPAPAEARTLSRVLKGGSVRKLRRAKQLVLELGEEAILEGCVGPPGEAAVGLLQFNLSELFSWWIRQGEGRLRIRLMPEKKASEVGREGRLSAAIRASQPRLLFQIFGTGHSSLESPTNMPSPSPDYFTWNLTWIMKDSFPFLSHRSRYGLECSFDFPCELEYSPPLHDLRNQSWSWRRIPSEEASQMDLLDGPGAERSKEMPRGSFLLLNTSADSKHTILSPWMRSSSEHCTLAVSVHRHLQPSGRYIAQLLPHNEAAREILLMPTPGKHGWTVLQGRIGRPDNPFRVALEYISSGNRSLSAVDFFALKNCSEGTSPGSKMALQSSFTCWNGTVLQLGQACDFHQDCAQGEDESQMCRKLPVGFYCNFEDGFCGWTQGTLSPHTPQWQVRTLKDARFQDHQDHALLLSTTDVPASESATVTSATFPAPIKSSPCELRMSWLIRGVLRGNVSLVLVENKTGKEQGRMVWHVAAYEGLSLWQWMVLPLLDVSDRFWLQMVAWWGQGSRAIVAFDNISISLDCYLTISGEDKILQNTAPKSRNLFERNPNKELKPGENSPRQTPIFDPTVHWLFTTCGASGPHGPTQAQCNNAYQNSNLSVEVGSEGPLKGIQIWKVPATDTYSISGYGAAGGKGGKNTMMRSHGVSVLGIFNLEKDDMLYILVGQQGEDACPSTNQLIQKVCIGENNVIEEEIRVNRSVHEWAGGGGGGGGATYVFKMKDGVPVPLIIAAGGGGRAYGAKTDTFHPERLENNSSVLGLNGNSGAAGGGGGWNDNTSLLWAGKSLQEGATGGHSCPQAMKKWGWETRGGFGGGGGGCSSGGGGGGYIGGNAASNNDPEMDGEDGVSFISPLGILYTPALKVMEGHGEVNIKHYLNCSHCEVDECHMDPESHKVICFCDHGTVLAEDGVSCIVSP
T1 sequence (Q9UM73 648-985 limits assumed): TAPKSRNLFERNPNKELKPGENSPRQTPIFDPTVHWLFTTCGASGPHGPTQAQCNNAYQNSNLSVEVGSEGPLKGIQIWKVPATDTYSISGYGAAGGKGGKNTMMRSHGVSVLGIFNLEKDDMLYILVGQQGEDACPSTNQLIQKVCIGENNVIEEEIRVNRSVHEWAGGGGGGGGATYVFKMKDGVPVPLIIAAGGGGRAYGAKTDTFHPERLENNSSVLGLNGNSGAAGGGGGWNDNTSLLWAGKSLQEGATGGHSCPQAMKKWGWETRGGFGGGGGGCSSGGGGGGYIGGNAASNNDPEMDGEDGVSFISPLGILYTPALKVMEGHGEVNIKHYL

B1: ALKAL2 (truncated, residues 78-152) (ligand, human, UniProt Q6UX46 78-152, looked up)
chain: PSPEQRVEIVPRDLRMKDKFLKHLTGPLYFSPKCSKHFHRLYHNTRDCTIPAYYKRCARLLTRLAVSPVCMEDKQ
notes: range 78-152; Tag-free in ITC, SEC-MALLS, crystals and Ba/F3 assays; also called ALKAL2^WT; WT ALKAL2
One may read the Kd as the free concentration of one partner at which half of the binding sites on the other are occupied at equilibrium, for simple one-to-one binding. A lower Kd goes with a tighter complex. The term koff denotes the first-order rate constant of dissociation. Low readings indicate a long-lived complex, high ones a short-lived complex. Usually kon stands for the second-order rate constant of association. The low end stands for slower complex formation, the high end for faster complex formation. Regarding B1, in assay [1], the “fold decrease in affinity against ALKTG-EGFL” value is 30 fold. Also, the equilibrium dissociation constant (Kd) in assay [2] was 40 nM; in assay [3], 55 nM; in assay [4], 70 nM; in assay [5], 1300 nM; in assay [6], 6.8 nM; in assay [8] it was 10 nM. The results for the Kd in assay [9], in assay [10] and in assay [11] were 135 nM, 100 nM and 350 nM, respectively. Also, the ΔG in assay [4] was -9.4 kcal/mol; in [5], -8.34 kcal/mol; in [6] it was -11.6 kcal/mol; in assay [7] it was -10.6 kcal/mol; in [8] it was -11.4 kcal/mol. The ΔH in [4] is -9.7 kcal/mol; in assay [5], -8.3 kcal/mol; in [6], -30.2 kcal/mol; in assay [7], -10.1 kcal/mol; in assay [8], -31 kcal/mol. Moreover, the koff in assay [10] came to 0.0037 s⁻¹; in [11], 0.0005 s⁻¹. The kon in assay [10] was 28000 M⁻¹ s⁻¹; in assay [11], 4000 M⁻¹ s⁻¹.

B2: ALKAL1 (truncated, residues 57-129) (ligand, human, UniProt Q6UXT8 57-129, looked up)
chain: PSGSRSAEIFPRDSNLKDKFIKHFTGPVTFSPECSKHFHRLYYNTRECSTPAYYKRCARLLTRLAVSPLCSQT
notes: range 57-129; Tag-free in ITC, SEC-MALLS, crystals and Ba/F3 assays; also called ALKAL1^WT; WT ALKAL1
Turning to B2, the “fold decrease in affinity against ALKTG-EGFL” value in assay [1] amounted to 4 fold. For the same molecule, the Kd was 600 nM in assay [2]; 10 nM in assay [3]; 2500 nM in assay [12]; 69 nM in assay [13]; 55 nM in assay [14]; 760 nM in assay [16]. The figures for the Kd in assay [17] and in assay [18] were 48 nM and 31 nM, respectively. Moreover, the ΔG in assay [12] was -7.95 kcal/mol; in assay [13], -10.2 kcal/mol; in [14] it was -10.4 kcal/mol; in [15] it was -8.93 kcal/mol. The ΔH in [12] is -5.5 kcal/mol; in [13], -28.6 kcal/mol; in [14], -29.4 kcal/mol; in assay [15] it was -7.3 kcal/mol. Besides, the koff is 0.093 s⁻¹ in [16], 0.0025 s⁻¹ in assay [17] and 0.026 s⁻¹ in [18]. For the same molecule, the kon in assay [16] amounted to 130000 M⁻¹ s⁻¹; in assay [17] it was 52000 M⁻¹ s⁻¹; in assay [18] it was 860000 M⁻¹ s⁻¹.

B3: ALKAL1^R102E (residues 57-129) (ligand, human, UniProt Q6UXT8 57-129, looked up)
chain: PSGSRSAEIFPRDSNLKDKFIKHFTGPVTFSPECSKHFHRLYYNTEECSTPAYYKRCARLLTRLAVSPLCSQT
notes: range 57-129; also called ALKAL1 site 1 mutant R102E
Turning to B3, the Kd in [19] was 14000 nM.
